Measured values: US20080025968A1 (YEDA RESEARCH AND DEVELOPMENT, published 2008)

Target: T1, IKK2, endogenous (human, UniProt O14920 1-756)
T1 construct: mature; also called IKKβ
T1 sequence (looked up): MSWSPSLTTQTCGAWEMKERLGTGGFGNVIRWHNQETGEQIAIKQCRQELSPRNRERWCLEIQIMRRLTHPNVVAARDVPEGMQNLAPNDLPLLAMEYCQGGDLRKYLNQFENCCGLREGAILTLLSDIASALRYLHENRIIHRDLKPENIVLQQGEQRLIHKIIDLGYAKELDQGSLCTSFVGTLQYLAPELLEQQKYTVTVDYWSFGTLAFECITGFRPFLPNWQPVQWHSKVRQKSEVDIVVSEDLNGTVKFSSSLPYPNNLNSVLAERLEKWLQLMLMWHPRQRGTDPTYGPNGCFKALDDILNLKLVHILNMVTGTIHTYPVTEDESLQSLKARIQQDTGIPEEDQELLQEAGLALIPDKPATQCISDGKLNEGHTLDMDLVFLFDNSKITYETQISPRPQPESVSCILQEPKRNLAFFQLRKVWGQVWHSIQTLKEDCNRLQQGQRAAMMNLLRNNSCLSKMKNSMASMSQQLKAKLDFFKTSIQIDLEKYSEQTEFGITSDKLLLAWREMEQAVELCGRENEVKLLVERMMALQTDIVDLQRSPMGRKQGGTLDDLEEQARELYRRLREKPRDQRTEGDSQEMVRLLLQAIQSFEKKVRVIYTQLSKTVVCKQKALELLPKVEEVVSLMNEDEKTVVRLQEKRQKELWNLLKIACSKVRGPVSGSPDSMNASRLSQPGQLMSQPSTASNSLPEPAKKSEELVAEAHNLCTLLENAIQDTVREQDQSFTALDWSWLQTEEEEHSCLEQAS
Assay: western blot of the p55 TNF receptor complex from Ramos cells after TNF (FIG. 5c)

binding result: binds
B1: p55 TNF receptor, endogenous in Ramos cells (receptor, human, UniProt P19438 30-455, looked up)
chain: LVPHLGDREKRDSVCPQGKYIHPQNNSICCTKCHKGTYLYNDCPGPGQDTDCRECESGSFTASENHLRHCLSCSKCRKEMGQVEISSCTVDRDTVCGCRKNQYRHYWSENLFQCFNCSLCLNGTVHLSCQEKQNTVCTCHAGFFLRENECVSCSNCKKSLECTKLCLPQIENVKGTEDSGTTVLLPLVIFFGLCLLSLLFIGLMYRYQRWKSKLYSIVCGKSTPEKEGELEGTTTKPLAPNPSFSPTPGFTPTLGFSPVPSSTFTSSSTYTPGDCPNFAAPRREVAPPYQGADPILATALASDPIPNPLQKWEDSAHKPQSLDTDDPATLYAVVENVPPLRWKEFVRRLGLSDHEIDRLELQNGRCLREAQYSMLATWRRRTPRREATLELLGRVLRDMDLLGCLEDIEEALCGPAALPPAPSLLR
notes: whole, on cells; TNF-receptor complex precipitated as described by Zhang et al., 2000
